B1: dNMC003-B (dual VHH CAR, VHH01-(G4S)5-VHH02, on K562 or CAR-T cells) (other)
chain: QVQLQESGGGSVQPGGSLRLSCKASGFTFSPSAMSWARQAPGKEIEWVSNIYPDGRTYYADSMKGRFTISRDNAENTVYLQMNSLKPEDTAVYYCLIGVGIVAGQVVSPYWGQGTQVTVSSGGGGSGGGGSGGGGSGGGGSGGGGSQVQLQESGGGLVQPGGSLRLSCAASGFTFSNYAMSWFRQGPGKERELVAGIDRTGGSTRTADSVQGRFTISRDNAKNKVYLQMNSLKPEDTAVYYCKALRTPGWGTSPDVVGYWGQGTQVTVSSTTPAPRPPTPAPTIASQPLSLRPEACRPAAGGAVHTRGLDFACDIYIWAPLAGTCGVLLLSLVITLYCKRGRKKLLYIFKQPFMRPVQTTQEEDGCSCRFPEEEEGGCELRVKFSRSADAPAYKQGQNQLYNELNLGRREEYDVLDKRRGRDPEMGGKPRRKNPQEGLYNELQKDKMAEAYSEIGMKGERRRGKGHDGLYQGLSTATKDTYDALHMQALPPR
notes: T2A-tEGFR follows in the construct and is split off at T2A; also called K562-dNMC003-B; dNMC003-B CAR-T
B2: dNb003-B-Fc (Fc fusion)
chain: QVQLQESGGGSVQPGGSLRLSCKASGFTFSPSAMSWARQAPGKEIEWVSNIYPDGRTYYADSMKGRFTISRDNAENTVYLQMNSLKPEDTAVYYCLIGVGIVAGQVVSPYWGQGTQVTVSSGGGGSGGGGSGGGGSGGGGSGGGGSQVQLQESGGGLVQPGGSLRLSCAASGFTFSNYAMSWFRQGPGKERELVAGIDRTGGSTRTADSVQGRFTISRDNAKNKVYLQMNSLKPEDTAVYYCKALRTPGWGTSPDVVGYWGQGTQVTVSS
modifications: biotinylated for the flow cytometry assay only (sites not given)
notes: not shown: N-terminal SUMO tag from plasmid pET-28a-Sumo-Nb-Fc; human IgG1 Fc tag at the C-terminus
B3: dNMC003-A (dual VHH CAR, VHH02-(G4S)5-VHH02, on K562 or CAR-T cells) (other)
chain: QVQLQESGGGLVQPGGSLRLSCAASGFTFSNYAMSWFRQGPGKERELVAGIDRTGGSTRTADSVQGRFTISRDNAKNKVYLQMNSLKPEDTAVYYCKALRTPGWGTSPDVVGYWGQGTQVTVSSGGGGSGGGGSGGGGSGGGGSGGGGSQVQLQESGGGLVQPGGSLRLSCAASGFTFSNYAMSWFRQGPGKERELVAGIDRTGGSTRTADSVQGRFTISRDNAKNKVYLQMNSLKPEDTAVYYCKALRTPGWGTSPDVVGYWGQGTQVTVSSTTPAPRPPTPAPTIASQPLSLRPEACRPAAGGAVHTRGLDFACDIYIWAPLAGTCGVLLLSLVITLYCKRGRKKLLYIFKQPFMRPVQTTQEEDGCSCRFPEEEEGGCELRVKFSRSADAPAYKQGQNQLYNELNLGRREEYDVLDKRRGRDPEMGGKPRRKNPQEGLYNELQKDKMAEAYSEIGMKGERRRGKGHDGLYQGLSTATKDTYDALHMQALPPR
notes: T2A-tEGFR follows in the construct and is split off at T2A; also called K562-dNMC003-A; dNMC003-A CAR-T
B4: NMC003-01 (single VHH CAR with VHH01, on CAR-T cells) (other)
chain: QVQLQESGGGSVQPGGSLRLSCKASGFTFSPSAMSWARQAPGKEIEWVSNIYPDGRTYYADSMKGRFTISRDNAENTVYLQMNSLKPEDTAVYYCLIGVGIVAGQVVSPYWGQGTQVTVSSTTPAPRPPTPAPTIASQPLSLRPEACRPAAGGAVHTRGLDFACDIYIWAPLAGTCGVLLLSLVITLYCKRGRKKLLYIFKQPFMRPVQTTQEEDGCSCRFPEEEEGGCELRVKFSRSADAPAYKQGQNQLYNELNLGRREEYDVLDKRRGRDPEMGGKPRRKNPQEGLYNELQKDKMAEAYSEIGMKGERRRGKGHDGLYQGLSTATKDTYDALHMQALPPR
notes: also called NMC003-01 CAR-T
B5: Nb003-01 (VHH01), monoclonal phage clone (VHH)
VHH: QVQLQESGGGSVQPGGSLRLSCKASGFTFSPSAMSWARQAPGKEIEWVSNIYPDGRTYYADSMKGRFTISRDNAENTVYLQMNSLKPEDTAVYYCLIGVGIVAGQVVSPYWGQGTQVTVSS
B6: Nb003-01-Fc (Fc fusion)
chain: B5 VHH
modifications: biotinylated for the flow cytometry assay only (sites not given)
notes: also called VHH01; not shown: N-terminal SUMO tag from plasmid pET-28a-Sumo-Nb-Fc; human IgG1 Fc tag at the C-terminus
B7: Nb003-02-Fc (Fc fusion)
chain: QVQLQESGGGLVQPGGSLRLSCAASGFTFSNYAMSWFRQGPGKERELVAGIDRTGGSTRTADSVQGRFTISRDNAKNKVYLQMNSLKPEDTAVYYCKALRTPGWGTSPDVVGYWGQGTQVTVSS
modifications: biotinylated for the flow cytometry assay only (sites not given)
notes: also called VHH02; not shown: N-terminal SUMO tag from plasmid pET-28a-Sumo-Nb-Fc; human IgG1 Fc tag at the C-terminus
B8: Nb003-02 (VHH02), monoclonal phage clone (VHH)
VHH: B7 chain

What was measured:
[1] = target: T1, BCMA-His protein (extracellular region of human BCMA, His-tagged) (human, UniProt Q02223 1-54); experiment: flow cytometry (MFI) of transduced K562 cells stained with BCMA-His and an anti-His tag antibody
T1 construct: extracellular domain; Made in house and purified on a Ni column; also called human BCMA antigen; recombinant BCMA-His protein; not shown: His tag
T1 sequence (looked up): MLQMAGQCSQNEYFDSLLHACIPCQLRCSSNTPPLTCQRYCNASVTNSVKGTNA

[2] = target: T1, BCMA-His protein (extracellular region …); experiment: ELISA, BCMA-His coated, anti-human IgG1 Fc-HRP detection
[3] = target: T1, BCMA-His protein (extracellular region …); experiment: SPR (Biacore 8K), BCMA-His captured on NTA chip, nanobody-Fc as analyte, 1:1 binding fit
[4] = target: T1, BCMA-His protein (extracellular region …); experiment: flow cytometry of CAR-T cells stained with BCMA-His and an anti-His tag antibody
[5] = target: T1, BCMA-His protein (extracellular region …); experiment: monoclonal phage ELISA on coated BCMA protein, HA-HRP detection

Binder	EC50 [2] [nM]	Kd [3] [nM]	koff [3] [s⁻¹]	kon [3] [M⁻¹ s⁻¹]	further results
B1					binding result [1]: binds
B2	0.346	1.94	0.00245	1.27e+06	
B3					binding result [1]: binds
B4					binding result [4]: binds
B5					binding result [5]: binds
B6	2.05	62	0.000857	13800	
B7	0.652	1.79	0.00212	1.19e+06	
B8					binding result [5]: binds

Reference: patent EP4644418A1 (Hebei Senlang Biotechnology Co. Ltd., dated 2025)
